Results published in patent publication US20020164690A1.

T1: gp130 on PC12D cells (UniProt P40190)
T1 sequence (looked up): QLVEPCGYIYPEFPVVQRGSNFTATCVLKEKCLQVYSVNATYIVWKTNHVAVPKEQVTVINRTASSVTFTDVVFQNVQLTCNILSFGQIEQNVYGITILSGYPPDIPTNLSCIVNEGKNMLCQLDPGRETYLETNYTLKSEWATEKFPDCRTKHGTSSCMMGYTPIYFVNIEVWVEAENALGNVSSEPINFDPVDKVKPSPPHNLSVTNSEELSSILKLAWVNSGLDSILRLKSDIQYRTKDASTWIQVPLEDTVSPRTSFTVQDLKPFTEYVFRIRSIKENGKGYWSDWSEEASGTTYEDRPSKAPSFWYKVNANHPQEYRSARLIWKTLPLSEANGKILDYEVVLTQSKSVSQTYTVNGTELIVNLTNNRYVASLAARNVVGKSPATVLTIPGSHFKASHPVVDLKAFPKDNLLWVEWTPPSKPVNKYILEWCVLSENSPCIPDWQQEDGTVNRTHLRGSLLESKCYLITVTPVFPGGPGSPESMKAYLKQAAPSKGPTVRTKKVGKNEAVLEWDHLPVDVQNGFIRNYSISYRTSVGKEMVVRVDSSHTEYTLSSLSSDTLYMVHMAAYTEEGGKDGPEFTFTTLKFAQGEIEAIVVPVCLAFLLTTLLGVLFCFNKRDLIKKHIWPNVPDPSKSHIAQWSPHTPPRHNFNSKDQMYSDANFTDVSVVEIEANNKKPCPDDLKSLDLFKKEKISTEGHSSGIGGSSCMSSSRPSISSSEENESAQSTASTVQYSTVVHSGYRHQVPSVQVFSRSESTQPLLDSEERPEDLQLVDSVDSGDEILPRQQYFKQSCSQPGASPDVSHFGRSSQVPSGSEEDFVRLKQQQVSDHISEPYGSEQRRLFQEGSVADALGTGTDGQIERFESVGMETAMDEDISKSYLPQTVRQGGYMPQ


Columns and labels:
[1] = biological target: recombinant human IL-6 (human) (UniProt P05231); assay: cell-based or functional assay
recombinant human IL-6 (human), sequence (P05231 30-212 limits assumed): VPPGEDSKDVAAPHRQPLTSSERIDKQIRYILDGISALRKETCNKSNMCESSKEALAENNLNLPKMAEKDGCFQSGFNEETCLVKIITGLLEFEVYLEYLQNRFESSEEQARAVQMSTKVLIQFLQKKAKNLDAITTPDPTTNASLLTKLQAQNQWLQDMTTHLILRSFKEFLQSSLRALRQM

[2] = biological target: human 125I-IL6 (human) (UniProt P05231); assay: dissociation: 20 pM 125I-IL-6 preincubated with 500 pM antibody for 20 hours, chased with 20 nM cold IL-6, precipitation with Protein G-Sepharose
human 125I-IL6 (human), sequence (P05231 30-212 limits assumed): as above

[3] = biological target: T1, gp130 on PC12D cells; assay: cell-based or functional assay

Row | IL-6-dependent proliferation of XG-1 cells (50 pg/ml IL-6): molar excess that blocks completely (fold molar excess over IL-6) [1] | percent of the counts still associated after three days [2] [%] | tyrosine phosphorylation of gp130 in PC12D cells in response to IL-6 [3] [nM] | tyrosine phosphorylation of gp130 in PC12D cells in response to IL-6 and sIL-6Rα [3] [nM] | Binder
1 | 10 | < 5 |  |  | anti-IL-6 monoclonal neutralizing antibody B-E8 (antibody, from another filing, V domains shown) VH: QVTLKESGPGILKPSQTLSLTCSFSGFSLSTSGMGVGWIRQPSGKGLEWLAHIWWDDDKYYNPSLKSQLTISKDTSRNQVFLKITSVDTADTATYYCARSYDDYLYYALDYWGQGTSVTVSS VL: DIVMTQSPATLSVTPGDRVSLSCRASQSISDYLHWYQQKSHESPRLLIKSVSQSISGIPSRFSGSGSGSDFTLSINSVEPEDVGVYYCQNGHSFPLTFGAGTKLELK
2 |  |  | 2 | 8 | Rat CNTF (ligand, UniProt P20294 1-200, looked up) MAFAEQTPLTLHRRDLCSRSIWLARKIRSDLTALMESYVKHQGLNKNINLDSVDGVPVASTDRWSEMTEAERLQENLQAYRTFQGMLTKLLEDQRVHFTPTEGDFHQAIHTLMLQVSAFAYQLEELMVLLEQKIPENEADGMPATVGDGGLFEKKLWGLKVLQELSQWTVRSIHDLRVISSHQMGISALESHYGAKDKQM
